Patent publication US6033847, “InK4c-p18 and InK4d-p19, inhibitors of cyclin-dependent kinases CDK4 and CDK6, and uses thereof” (St. Jude Children's Research Hospital, dated 2000)

T1: cyclin D3 (Mus musculus (Mouse), UniProt P30282)
T1 sequence: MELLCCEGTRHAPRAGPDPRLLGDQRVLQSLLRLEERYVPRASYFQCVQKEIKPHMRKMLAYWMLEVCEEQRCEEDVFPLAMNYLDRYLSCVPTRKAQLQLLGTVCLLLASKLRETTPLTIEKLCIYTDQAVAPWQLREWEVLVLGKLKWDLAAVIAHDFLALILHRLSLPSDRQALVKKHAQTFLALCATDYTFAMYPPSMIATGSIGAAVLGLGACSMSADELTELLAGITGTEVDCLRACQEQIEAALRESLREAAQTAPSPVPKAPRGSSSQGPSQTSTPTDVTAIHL


Assays:
human CDC2 (CDK1) = human CDC2 (CDK1) (human, UniProt P06493); assay: GST pull-down of 35S-labelled in vitro translated CDKs
Procedure: (§1) Equal aliquots of the "input" samples shown in lanes 1–6 were incubated with control beads (lanes 7–12) (i.e., GST-Sepharose; GST=glutathione S-transferase) or with beads containing a GST-p19 fusion protein (lanes 13–18), after which the beads were washed, and adsorbed radiolabeled products were separated on gels and autoradiographed. In Panel B, the experiments were performed as in panel A, except that radiolabeled cyclins D2 and D3 were substituted for cdk gene products; the cdk4 gene product was used as a positive control. All autoradiographic exposure times were 15 hrs.
(§2) Human InK4 polypeptides specifically bind to the cyclin D-dependent catalytic subunits, CDK4 and CDK6 (5,18,45). To study the interactions of mouse p19 and p18 with CDKs, cDNAs encoding CDC2 (CDK1) and CDKs 2–6 were transcribed and translated in vitro, and the radiolabeled products were mixed with GST-tagged p19 and p18 fusion proteins adsorbed to glutathione-Sepharose beads or to GST-Sepharose beads as a control.
(§3) Plasmids derived from pBluescript and containing the entire coding sequences of the mouse cdk2, cdk4, cdk5, or cdk6 genes (Matsuoka et al., Mol. Cell. Biol. 14:7265–7275 (1994); Matsushime et al., Cell 71:323–334 (1992)) or human cdc2/cdk1 or cdk3 genes (provided by Drs. Matthew Meyer-son and Edward Harlow (MGH Cancer Center, Cambridge, Mass.)) were transcribed and translated in vitro (Matsuoka et al., Mol. Cell. Biol. 14:7265–7275 (1994)). Mouse cdk6 cDNA was cloned from a mouse macrophage library (Stratagene, La Jolla, Calif.) by screening with a full-length human cdk6 clone (also provided by M. Meyerson and E. Harlow). Following transcription and translation, rabbit reticulocyte lysates containing ^35S-methionine labeled CDKs (20–40 ul) were diluted to 0.5 ml in IP kinase buffer (50 mM Hepes, pH 7.5, containing 150 mM NaCl, 1 mM EDTA, 1 mM DTT, 0.1% Tween-20) containing 10 mg/ml BSA and mixed with 1 ug of purified GST or GST-p19 immobilized on glutathione-Sepharose beads. After 2 hours of incubation at 4° C., beads were collected by centrifugation, washed 4 times in IP kinase buffer, and the bound proteins were denatured and analyzed by electrophoresis on 12.5% polyacrylamide gels containing SDS (Anderson, S. J., et al., J. Virol. 51:730–741 (1984)).

mouse CDK5 = mouse CDK5 (mouse, UniProt P49615); assay: as above
Procedure: as §1, §2, §3

mouse CDK2 = mouse CDK2 (mouse, UniProt P97377-2); assay: as above
Procedure: as §1, §2, §3

cyclin D3 = target: T1, cyclin D3; assay: GST pull-down of radiolabelled cyclins D2 and D3
Procedure: as §1, with “Panel A is an autoradiograph of aliquots of the ^35S-methionine-labeled products, derived from the in vitro transcription and translation of plasmids containing CDNA coding sequences of the cdc or cdk gene indicated in the legend below lanes 1–6, separated by electrophoresis on denaturing polyacrylamide gels. Equal” for “Equal”
as §3

cyclin D2 = cyclin D2 (Mus musculus (Mouse), UniProt P30280); assay: GST pull-down of radiolabelled cyclins D2 and D3
Procedure: as §1, with “Panel A is an autoradiograph of aliquots of the ^35S-methionine-labeled products, derived from the in vitro transcription and translation of plasmids containing CDNA coding sequences of the cdc or cdk gene indicated in the legend below lanes 1–6, separated by electrophoresis on denaturing polyacrylamide gels. Equal” for “Equal”
as §3

[1] = target: cyclin D1 (endogenous, murine BAC1.2F5 macrophages) (mouse, UniProt P25322); assay: co-immunoprecipitation from lysates of proliferating mouse cells with antiserum to the p19 C-terminus

binding result (human CDC2 (CDK1))	binding result (mouse CDK5)	binding result (mouse CDK2)	binding result (cyclin D3)	binding result (cyclin D2)	binding result [1]	Binder
no binding	no binding	no binding	no binding	no binding		GST-p18 fusion protein (glutathione S-transferase fused to mouse InK4c-p18) (other) MAEPWGNELASAAARGDLEQLTSLLQNNVNVNAQNGFGRTALQVMKLGNPEIARRLLLRGANPNLKDGTGFAVIHDAARAGFLDTVQALLEFQADVNIEDNEGNLPLHLAAKEGHLPVVEFLMKHTACNVGHRNHKGDTAFDLARFYGRNEVISLMEANGVGGATSLQ
no binding (tested: 1 ug on beads)	no binding (tested: 1 ug on beads)	no binding (tested: 1 ug on beads)	no binding	no binding		GST-p19 fusion protein (glutathione S-transferase fused to mouse InK4d-p19) (other) MLLEEVCVGDRLSGARARGDVQEVRRLLHRELVHPDALNRFGKTALQVMMFGSPAVALELLKQGASPNVQDASGTSPVHDAARTGFLDTLKVLVEHGADVNALDSTGSLPIHLAIREGHSSVVSFLAPESDLHHRDASGLTPLELARQRGAQNLMDILQGHMMIPM
					no binding	mouse InK4d-p19 (other) MLLEEVCVGDRLSGARARGDVQEVRRLLHRELVHPDALNRFGKTALQVMMFGSPAVALELLKQGASPNVQDASGTSPVHDAARTGFLDTLKVLVEHGADVNALDSTGSLPIHLAIREGHSSVVSFLAPESDLHHRDASGLTPLELARQRGAQNLMDILQGHMMIPM
